Ends that are not written are not given here.
How the values were obtained:
[1] = target: T1, A1PI (Homo sapiens, UniProt P01009); assay: A1PI binding on peptide-resin column, injection of 1 mg A1PI in equilibration buffer; conditions: for % of Total A1PI Eluted by Fraction (Based on Absorbance at 280 nm), 1M NaCl / % of Total A1PI Eluted by Fraction (Based on Absorbance at 280 nm), 2% Acetic Acid / % of Total A1PI Eluted by Fraction (Based on Absorbance at 280 nm), Flowthrough: 1 mg A1PI
T1 construct: Human plasma is currently the only approved source of therapeutic AlPI
T1 sequence (P01009 25-418): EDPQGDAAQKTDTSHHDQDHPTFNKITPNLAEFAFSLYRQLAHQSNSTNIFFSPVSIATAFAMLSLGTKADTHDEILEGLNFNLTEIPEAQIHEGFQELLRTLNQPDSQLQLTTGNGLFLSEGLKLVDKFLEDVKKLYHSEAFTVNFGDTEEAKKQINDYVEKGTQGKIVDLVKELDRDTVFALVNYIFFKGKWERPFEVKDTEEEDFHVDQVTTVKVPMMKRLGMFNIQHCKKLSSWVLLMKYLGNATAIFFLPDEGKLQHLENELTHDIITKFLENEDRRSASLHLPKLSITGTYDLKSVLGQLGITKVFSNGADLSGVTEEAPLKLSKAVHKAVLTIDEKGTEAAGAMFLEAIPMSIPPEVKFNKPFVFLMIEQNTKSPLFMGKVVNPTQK
How it was run: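 Peptides synthesized on A-Totda-Toyopearl chelate resin (0.1 mmole/g) packed in 0.4×5 cm columns; 1 mg A1PI injected in equilibration buffer at 4 °C or 20 °C, 865 or 523 μl/min. Flowthrough, 1M/3M NaCl washes and 2% acetic acid eluate quantified by A280 or immunonephelometry as percent of total eluted.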

[2] = target: T1, A1PI; assay: Purification of A1PI from Effluent II+III on peptide column, A1PI mass balance; assay type: binding; conditions: 1 ml Eff. II+III, 4° C.
How it was run: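 First, 1 ml of the ethanolic Cohn intermediate (20% ethanol, ~1 mg/ml A1PI) is injected and held for a 10 min residence time. Columns are then eluted stepwise at a constant 865 μl/min with 1M NaCl, 3M NaCl and finally 2% acetic acid, all at 4° C.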

[3] = 1 mg A1PI in equilibration buffer, 4° C.
[4] = 1 mg A1PI in equilibration buffer, 20° C.
[5] = VIWLVR N-terminal point mutations, 4° C.
[6] = A1PI, * as in Tables 4, 5 (below detection limit)
[7] = Table 11, * Below detection limit

Percent A1PI Eluted by Fraction Based on Absorbance at 280 nm, 1M NaCl [1, 3]: 25% | Percent A1PI Eluted by Fraction Based on Absorbance at 280 nm, 2% Acetic Acid [1, 3]: 30% | Percent A1PI Eluted by Fraction Based on Absorbance at 280 nm, Flowthrough [1, 3]: 45% | Percent A1PI Eluted by Fraction, 1M NaCl [1, 4]: 26% | Percent A1PI Eluted by Fraction, 2% Acetic Acid [1, 4]: 66% | Percent A1PI Eluted by Fraction, Flowthrough [1, 4]: 8% | % of Total A1PI Eluted by Fraction (Based on Absorbance at 280 nm), 1M NaCl ([1]; Trp position mutations, 4° C.): 25% | % of Total A1PI Eluted by Fraction (Based on Absorbance at 280 nm), 2% Acetic Acid ([1]; Trp position mutations, 4° C.): 30% | % of Total A1PI Eluted by Fraction (Based on Absorbance at 280 nm), Flowthrough ([1]; Trp position mutations, 4° C.): 45% | % of Total A1PI Eluted by Fraction (Based on Absorbance at 280 nm), 1M NaCl ([1]; Trp position mutations, 20° C.): 26% | % of Total A1PI Eluted by Fraction (Based on Absorbance at 280 nm), 2% Acetic Acid ([1]; Trp position mutations, 20° C.): 66% | % of Total A1PI Eluted by Fraction (Based on Absorbance at 280 nm), Flowthrough ([1]; Trp position mutations, 20° C.): 8% | % of Total A1PI Eluted by Fraction (Based on Absorbance at 280 nm), 1M NaCl [1, 5]: 25% | % of Total A1PI Eluted by Fraction (Based on Absorbance at 280 nm), 2% Acetic Acid [1, 5]: 30% | % of Total A1PI Eluted by Fraction (Based on Absorbance at 280 nm), Flowthrough [1, 5]: 45% | Percent Eluted by Fraction, 1M NaCl ([2]; A1PI): 9% | Percent Eluted by Fraction, 2% Acetic Acid ([2]; A1PI): 43% | Percent Eluted by Fraction, 3M NaCl ([2]; A1PI): 0% | Percent Eluted by Fraction, Flow ([2]; A1PI): 48% | Mass Protein per Eluate Fraction, 1M NaCl [2, 6]: 0.10 mg | Mass Protein per Eluate Fraction, 2% Acetic Acid [2, 6]: 0.51 mg | Mass Protein per Eluate Fraction, Flow [2, 6]: 0.58 mg | Mass A1PI per Eluate Fraction, 1M NaCl [2, 7]: 0.10 mg | Mass A1PI per Eluate Fraction, 2% Acetic Acid [2, 7]: 0.51 mg | Mass A1PI per Eluate Fraction, Flowthrough [2, 7]: 0.58 mg | Percent Eluted by Fraction, 1M NaCl ([2]; Table 11, A1PI): 9% | Percent Eluted by Fraction, 2% Acetic Acid ([2]; Table 11, A1PI): 43% | Percent Eluted by Fraction, Flowthrough ([2]; Table 11, A1PI): 48%
Substance: VIWLVR

— US5985836A, “Alpha-1 proteinase inhibitor binding peptides” (Bayer Corporation, priority 1998, dated 1999)
